In patent US20260217835A1 (published 2026):
Residue numbers refer to the chain shown, from its start. Names may count otherwise.

B1: IgG2 full-length heavy chain E345R/Q347R/K360D/T366V/D399M/Y407A/K409V (SEQ ID NO: 100) with light chain SEQ ID NO: 61 (antibody)
heavy: QVQLQESGPGLVRPSQTLSLTCTVSGYSITSDHAWSWVRQPPGRGLEWIGYISYSGITTYNPSLKSRVTMLRDTSKNQFSLRLSSVTAADTAVYYCARSLARTTAMDYWGQGSLVTVSSASTKGPSVFPLAPCSRSTSESTAALGCLVKDYFPEPVTVSWNSGALTSGVHTFPAVLQSSGLYSLSSVVTVPSSNFGTQTYTCNVDHKPSNTKVDKTVERKCCVECPPCPAPPVAGPSVFLFPPKPKDTLMISRTPEVTCVVVDVSHEDPEVQFNWYVDGVEVHNAKTKPREEQFNSTFRVVSVLTVVHQDWLNGKEYKCKVSNKGLPAPIEKTISKTKGQPRRPRVYTLPPSREEMTDNQVSLVCLVKGFYPSDIAVEWESNGQPENNYKTTPPMLMSDGSFFLASVLTVDKSRWQQGNVFSCSVMHEALHNHYTQKSLSLSP
light: not shown
notes: also called Sample No. 234
B2: IgG2 full-length heavy chain with T394W/F405A (SEQ ID NO: 87) with light chain SEQ ID NO: 61 (antibody)
heavy: B1 heavy with R343E, R345Q, D358K, V364T, T392W, M397D, F403A, A405Y, V407K
light: not shown
notes: also called Sample No. 208 full-length heavy chain
B3: IgG2 full-length heavy chain with K392D/D399K/K409D (SEQ ID NO: 91) with light chain SEQ ID NO: 61 (antibody)
heavy: B1 heavy with R343E, R345Q, D358K, V364T, K390D, M397K, A405Y, V407D
light: not shown
notes: also called Sample No. 212 full-length heavy chain
B4: IgG2 full-length heavy chain with T366W/L368A/Y407V (SEQ ID NO: 88) with light chain SEQ ID NO: 61 (antibody)
heavy: B1 heavy with R343E, R345Q, D358K, V364W, L366A, M397D, A405V, V407K
light: not shown
B5: IgG2 full-length heavy chain with Q347R/K360E/D399V/F405T/K409W (SEQ ID NO: 89) with light chain SEQ ID NO: 61 (antibody)
heavy: B1 heavy with R343E, D358E, V364T, M397V, F403T, A405Y, V407W
light: not shown
notes: also called Sample No. 210 full-length heavy chain
B6: IgG2 full-length heavy chain with K392L/T394W/F405A/Y407V (SEQ ID NO: 90) with light chain SEQ ID NO: 61 (antibody)
heavy: B1 heavy with R343E, R345Q, D358K, V364T, K390L, T392W, M397D, F403A, A405V, V407K
light: not shown
B7: IgG2 full-length heavy chain Q347E/S354Y/T366Y/Y407T (SEQ ID NO: 99) with light chain SEQ ID NO: 61 (antibody)
heavy: B1 heavy with R343E, R345E, S352Y, D358K, V364Y, M397D, A405T, V407K
light: not shown
notes: also called Sample No. 233
B8: IgG1 full-length heavy chain with K392L/T394W/F405A/Y407V (SEQ ID NO: 41) with light chain SEQ ID NO: 61 (antibody)
heavy: QVQLQESGPGLVRPSQTLSLTCTVSGYSITSDHAWSWVRQPPGRGLEWIGYISYSGITTYNPSLKSRVTMLRDTSKNQFSLRLSSVTAADTAVYYCARSLARTTAMDYWGQGSLVTVSSASTKGPSVFPLAPSSKSTSGGTAALGCLVKDYFPEPVTVSWNSGALTSGVHTFPAVLQSSGLYSLSSVVTVPSSSLGTQTYICNVNHKPSNTKVDKRVEPKSCDKTHTCPPCPAPELLGGPSVFLFPPKPKDTLMISRTPEVTCVVVDVSHEDPEVKFNWYVDGVEVHNAKTKPREEQYNSTYRVVSVLTVLHQDWLNGKEYKCKVSNKALPAPIEKTISKAKGQPREPQVYTLPPSREEMTKNQVSLTCLVKGFYPSDIAVEWESNGQPENNYLTWPPVLDSDGSFALVSKLTVDKSRWQQGNVFSCSVMHEALHNHYTQKSLSLSP
light: not shown
notes: also called Sample No. 200 full-length heavy chain
B9: IgG1 full-length heavy chain with Q347E/S354Y/T366Y/Y407T (SEQ ID NO: 39) with light chain SEQ ID NO: 61 (antibody)
heavy: B8 heavy with Q349E, S356Y, T368Y, L394K, W396T, A407F, V409T
light: not shown
B10: IgG1 full-length heavy chain E356K/K392D/D399K/K409D (SEQ ID NO: 56) with light chain SEQ ID NO: 61 (antibody)
heavy: B8 heavy with E358K, L394D, W396T, D401K, A407F, V409Y, K411D
light: not shown
notes: also called Sample No. 229
B11: IgG1 full-length heavy chain K392L/T394W/F405A/Y407V (SEQ ID NO: 41) with light chain SEQ ID NO: 61 (antibody)
heavy: B8 heavy
light: not shown
notes: also called Sample No. 225
B12: IgG1 full-length heavy chain with Q347R/K360E/D399V/F405T/K409W (SEQ ID NO: 31) with light chain SEQ ID NO: 61 (antibody)
heavy: B8 heavy with Q349R, K362E, L394K, W396T, D401V, A407T, V409Y, K411W
light: not shown
B13: IgG1 full-length heavy chain Q347E/S354Y/T366Y/Y407T (SEQ ID NO: 39) with light chain SEQ ID NO: 61 (antibody)
heavy: B8 heavy with Q349E, S356Y, T368Y, L394K, W396T, A407F, V409T
light: not shown
B14: IgG1 full-length heavy chain with T366W/L368A/Y407V (SEQ ID NO: 26) with light chain SEQ ID NO: 61 (antibody)
heavy: B8 heavy with T368W, L370A, L394K, W396T, A407F
light: not shown
B15: IgG1 full-length heavy chain E345R/Q347R/K360D/T366V/D399M/Y407A/K409V (SEQ ID NO: 55) with light chain SEQ ID NO: 61 (antibody)
heavy: B8 heavy with E347R, Q349R, K362D, T368V, L394K, W396T, D401M, A407F, V409A, K411V
light: not shown
B16: IgG1 full-length heavy chain with T350V/L351Y/T366L/K392L/T394W/F405A/Y407V (SEQ ID NO: 60) with light chain SEQ ID NO: 61 (antibody)
heavy: B8 heavy with T352V, L353Y, T368L
light: not shown
B17: IgG1 full-length heavy chain Q347R/K360E/D399V/F405T/K409W (SEQ ID NO: 31) with light chain SEQ ID NO: 61 (antibody)
heavy: B8 heavy with Q349R, K362E, L394K, W396T, D401V, A407T, V409Y, K411W
light: not shown
B18: IgG1 full-length heavy chain E345R/K360E/D399M/Y407A/K409V (SEQ ID NO: 58) with light chain SEQ ID NO: 61 (antibody)
heavy: B8 heavy with E347R, K362E, L394K, W396T, D401M, A407F, V409A, K411V
light: not shown
notes: also called Sample No. 230
B19: IgG1 full-length heavy chain E356K/K392D/D399K/K439E (SEQ ID NO: 48) with light chain SEQ ID NO: 61 (antibody)
heavy: B8 heavy with E358K, L394D, W396T, D401K, A407F, V409Y, K441E
light: not shown
B20: IgG1 full-length heavy chain K392D/D399K/K409D (SEQ ID NO: 50) with light chain SEQ ID NO: 61 (antibody)
heavy: B8 heavy with L394D, W396T, D401K, A407F, V409Y, K411D
light: not shown
B21: IgG1 full-length heavy chain E356K/D399K/K409E/K439E (SEQ ID NO: 36) with light chain SEQ ID NO: 61 (antibody)
heavy: B8 heavy with E358K, L394K, W396T, D401K, A407F, V409Y, K411E, K441E
light: not shown
B22: IgG4 full-length heavy chain with T366W/L368A/Y407V (SEQ ID NO: 94) with light chain SEQ ID NO: 61 (antibody)
heavy: QVQLQESGPGLVRPSQTLSLTCTVSGYSITSDHAWSWVRQPPGRGLEWIGYISYSGITTYNPSLKSRVTMLRDTSKNQFSLRLSSVTAADTAVYYCARSLARTTAMDYWGQGSLVTVSSASTKGPSVFPLAPCSRSTSESTAALGCLVKDYFPEPVTVSWNSGALTSGVHTFPAVLQSSGLYSLSSVVTVPSSSLGTKTYTCNVDHKPSNTKVDKRVESKYGPPCPPCPAPEFLGGPSVFLFPPKPKDTLMISRTPEVTCVVVDVSQEDPEVQFNWYVDGVEVHNAKTKPREEQFNSTYRVVSVLTVLHQDWLNGKEYKCKVSNKGLPSSIEKTISKAKGQPREPQVYTLPPSQEEMTKNQVSLWCAVKGFYPSDIAVEWESNGQPENNYKTTPPVLDSDGSFFLVSRLTVDKSRWQEGNVFSCSVMHEALHNHYTQKSLSLSL
light: not shown
B23: IgG4 full-length heavy chain K392D/D399K/R409D (SEQ ID NO: 97) with light chain SEQ ID NO: 61 (antibody)
heavy: B22 heavy with W365T, A367L, K391D, D398K, V406Y, R408D
light: not shown
B24: IgG4 full-length heavy chain with T394W/F405A (SEQ ID NO: 93) with light chain SEQ ID NO: 61 (antibody)
heavy: B22 heavy with W365T, A367L, T393W, F404A, V406Y
light: not shown
B25: IgG4 full-length heavy chain Q347R/K360E/D399V/F405T/R409W (SEQ ID NO: 95) with light chain SEQ ID NO: 61 (antibody)
heavy: B22 heavy with Q346R, K359E, W365T, A367L, D398V, F404T, V406Y, R408W
light: not shown
B26: IgG4 full-length heavy chain K392L/T394W/F405A/Y407V (SEQ ID NO: 96) with light chain SEQ ID NO: 61 (antibody)
heavy: B22 heavy with W365T, A367L, K391L, T393W, F404A
light: not shown

Legend:
[1] = target: the molecule itself; experiment: co-expression of full-length heavy chain, light chain and Fc fragment in Expi293F, affinity purification, SEC peak area ratio;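 further: purified antibodies analysed by size exclusion chromatography with UV detection at 215 nm, each species given as share of total chromatogram peak area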
[2] = target: T1, IgG2 Fc fragment without modification (SEQ ID NO: 103) (Homo sapiens (Human), UniProt P01859 99-324 = IgG part); experiment: as above
T1 construct: Fc fragment co-expressed with a full-length heavy chain and the light chain; the associating unit is one Fc chain; also called WT-IgG2 Fc fragment

[3] = target: the molecule itself; experiment: SEC peak area ratio after coexpression of full-length heavy chain, light chain and Fc fragment

Row | Binder | Homo full-length heavy chain (%) [1] [%] | Heteromultimer (%) [2] [%] | Homo full-length heavy chain (%) [3] [%]
1 | B1 | 76.1 | 0 | 
2 | B2 |  |  | 80.8
3 | B3 |  |  | 79.6
4 | B4 |  |  | 80
5 | B5 |  |  | 80.4
6 | B6 |  |  | 78.5
7 | B7 | 76.3 | 0 | 
8 | B8 |  |  | 72.7
9 | B9 |  |  | 70.4
10 | B10 | 81.4 | 0 | 
11 | B11 | 83.8 | 0 | 
12 | B12 |  |  | 72.1
13 | B13 | 82.9 | 0 | 
14 | B14 |  |  | 73.8
15 | B15 | 83.5 | 0 | 
16 | B16 |  |  | 71.9
17 | B17 | 82.7 | 0 | 
18 | B18 | 84.3 | 0 | 
19 | B19 | 85.1 | 0 | 
20 | B20 | 81.4 | 0 | 
21 | B21 | 84.3 | 0 | 
22 | B22 |  |  | 83
23 | B23 | 82.5 | 0 | 
24 | B24 |  |  | 82
25 | B25 | 83.5 | 0 | 
26 | B26 | 81.5 | 0 | 
